Source: patent US20230416942A1 (YALE UNIVERSITY, published 2023)
Each block holds one binder with its values, some of them ahead of it.

Columns and labels:
[1] = biological target: T1, CD302 (human, UniProt Q8IX05 23-168, limits assumed); assay: ELISA, plate-coated recombinant human protein, nanobody-Fc
T1 construct: Recombinant human protein in ELISA
T1 sequence (looked up): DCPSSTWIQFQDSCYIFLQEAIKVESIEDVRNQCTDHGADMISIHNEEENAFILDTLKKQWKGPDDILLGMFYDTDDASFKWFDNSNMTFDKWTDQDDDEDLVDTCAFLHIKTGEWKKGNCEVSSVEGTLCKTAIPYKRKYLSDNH
Protocol: (§1) Recombinant human protein was diluted in PBS to a final concentration of 5 μg/mL and was immobilized on 96-well flat bottom MaxiSorp plates (Thermo Fisher Scientific) and placed at 4° C. overnight. Plates were washed three times with 225 μL ELISA wash buffer (PBS with 0.05% Tween 20) and 200 μL ELISA blocking buffer (PBS with 1% Casein) was added to the well. Plates were incubated with shaking for 2 hours at room temperature. ELISA blocking buffer was removed from the wells and appropriate dilutions of recombinant nanobodies in 100 μL ELISA blocking buffer was added to each well. Plates were incubated with shaking for 2 hours at room temperature. Plates were washed 3 times with 225 μL ELISA wash buffer and 1:5000 goat anti-human IgG HRP (Millipore Sigma) in 100 μL ELISA blocking buffer was added to the wells. Plates were incubated with shaking for 1 hour at room temperature. Plates were washed 6 times with 225 μL ELISA wash buffer. 50 μL TMB substrate (BD Biosciences) was added to the wells and plates were incubated for 15 minutes in the dark at room temperature. 50 μL 1 M sulfuric acid was added to the wells and absorbance at 450 nm was measured in a Synergy HTX Multi-Mode Microplate Reader (BioTek).

[2] = biological target: T2, PROCR (human, UniProt Q9UNN8 18-210); assay: as above
T2 construct: Recombinant human protein in ELISA and BLI
T2 sequence (looked up): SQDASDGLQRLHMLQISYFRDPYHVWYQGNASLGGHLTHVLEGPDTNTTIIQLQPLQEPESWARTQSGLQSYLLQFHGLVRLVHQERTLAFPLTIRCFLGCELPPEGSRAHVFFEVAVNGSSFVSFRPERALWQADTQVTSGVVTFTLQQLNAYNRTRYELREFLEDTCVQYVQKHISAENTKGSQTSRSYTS
Protocol: as §1

[3] = biological target: T3, CD3E (human, UniProt P07766 23-126); assay: as above
T3 construct: Recombinant human protein in ELISA
T3 sequence (P07766 23-126 limits assumed): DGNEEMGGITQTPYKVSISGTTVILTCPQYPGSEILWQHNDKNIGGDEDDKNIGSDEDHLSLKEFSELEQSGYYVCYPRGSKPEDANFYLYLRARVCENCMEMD
Protocol: as §1

[4] = biological target: T4, TNFRSF17 (recombinant human protein) (human, UniProt Q02223 1-54); assay: ELISA, recombinant human protein coated, nanobody-Fc titrated, anti-human IgG HRP
T4 construct: Recombinant human protein immobilized at 5 ug/mL for ELISA
T4 sequence (looked up): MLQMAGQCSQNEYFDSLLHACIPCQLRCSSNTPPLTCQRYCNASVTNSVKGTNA
Protocol: as §1

[5] = biological target: REAP Off-Targets; assay: REAP, nanobody-Fc on yeast-displayed human antigen library
[6] = biological target: T5, TNFSF18 (recombinant human protein) (human, UniProt Q9UNG2 52-177, limits assumed); assay: ELISA, recombinant human protein coated, nanobody-Fc titrated, anti-human IgG HRP
T5 construct: Recombinant human protein immobilized at 5 ug/mL for ELISA
T5 sequence (looked up): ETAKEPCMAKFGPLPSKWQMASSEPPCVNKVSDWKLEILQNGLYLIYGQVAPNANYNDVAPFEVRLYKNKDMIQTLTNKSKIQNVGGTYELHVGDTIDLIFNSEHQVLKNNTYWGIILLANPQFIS
Protocol: as §1

B1: CD302_Nb33 (Fc fusion)
chain: QVQLQESGGGLVQAGGSLRLSCAASGTISIIFAMGWYRQAPGKEREFVAGIGRGTTTYYADSVKGRFTISRDNAKNTVYLQMNSLKPEDTAVYYCAAHVFYDNVVQRHAYWGQGTQVTVSS
notes: Nanobody expressed and tested as Fc fusion (human IgG1); not shown: human IgG1 Fc (vector pCER243)
EC50 [1]: 2.26 nM

B2: PROCR_Nb90 (Fc fusion)
chain: QVQLQESGGGLVQAGGSLRLSCAASGTISGGYNMGWYRQAPGKEREFVATIGDGSSTYYADSVKGRFTISRDNAKNTVYLQMNSLKPEDTAVYYCAAFNSAQYWYESPFRYWGQGTQVTVSS
notes: as for B1
EC50 [2]: 1.74 nM

B4: TNFRSF17_Nb2.20 (Fc fusion)
chain: QVQLQESGGGLVQAGGSLRLSCAASGTIFSDYMGWYRQAPGKEREFVATIAVGSITYYADSVKGRFTISRDNAKNTVYLQMNSLKPEDTAVYYCAVWDASWADYAYWGQGTQVTVSS
notes: Nanobody expressed as an Fc fusion protein (fused with human IgG1) in Expi293 cells; not shown: human IgG1 Fc; nanobodies expressed as Fc fusion from vector pCER243
EC50 [4]: 1.02 nM

B5: CD3E_Nb2.76 (Fc fusion)
chain: QVQLQESGGGLVQAGGSLRLSCAASGNIFGNVVMGWYRQAPGKEREFVAGINNGGSTNYADSVKGRFTISRDNAKNTVYLQMNSLKPEDTAVYYCAVYYYYLTYHLYWGQGTQVTVSS
notes: as for B1
EC50 [3]: 16.1 nM

B9: TNFSF18_Nb94 (Fc fusion)
chain: QVQLQESGGGLVQAGGSLRLSCAASGNISLYYDMGWYRQAPGKERELVAAIDPGTITYYADSVKGRFTISRDNAKNTVYLQMNSLKPEDTAVYYCAVVIPDYVYRYVVGTVDYGYWGQGTQVTVSS
notes: as for B4
REAP Off-Targets (number) [5]: 1 off-targets
EC50 [6]: 71.8 nM

B10: CD3E_Nb2.79 (Fc fusion)
chain: QVQLQESGGGLVQAGGSLRLSCAASGTISPWRVMGWYRQAPGKEREFVAGITPGTTTYYADSVKGRFTISRDNAKNTVYLQMNSLKPEDTAVYYCAVSAGASTPARYRLVYWGQGTQVTVSS
notes: as for B1
EC50 [3]: 0.579 nM

B12: TNFRSF17_Nb2.18 (Fc fusion)
chain: QVQLQESGGGLVQAGGSLRLSCAASGNIFRGWYMGWYRQAPGKEREFVATIASGGSTYYADSVKGRFTISRDNAKNTVYLQMNSLKPEDTAVYYCAVWDWEPGDYAYWGQGTQVTVSS
notes: as for B4
REAP Off-Targets (number) [5]: 1 off-targets
EC50 [4]: 2.82 nM

B13: CD302_Nb32 (Fc fusion)
chain: QVQLQESGGGLVQAGGSLRLSCAASGTIFPDSSMGWYRQAPGKEREFVAGITTGANTYYADSVKGRFTISRDNAKNTVYLQMNSLKPEDTAVYYCAAYHVDRAVFRYWGQGTQVTVSS
notes: as for B1
EC50 [1]: 0.49 nM

B14: PROCR_Nb83 (Fc fusion)
chain: QVQLQESGGGLVQAGGSLRLSCAASGNISPTRFMGWYRQAPGKEREFVAAIDLGTTTNYADSVKGRFTISRDNAKNTVYLQMNSLKPEDTAVYYCAADWNGPWSFWYWGQGTQVTVSS
notes: as for B1
EC50 [2]: 1.27 nM

B15: PROCR_Nb89 (Fc fusion)
chain: QVQLQESGGGLVQAGGSLRLSCAASGTIFRDDNMGWYRQAPGKEREFVAAIGYGSTTNYADSVKGRFTISRDNAKNTVYLQMNSLKPEDTAVYYCAVRNTYWNLLQYWGQGTQVTVSS
notes: as for B1
EC50 [2]: 0.565 nM

B20: CD302_Nb28 (Fc fusion)
chain: QVQLQESGGGLVQAGGSLRLSCAASGSISGVSGMGWYRQAPGKEREFVAGITTGTSTYYADSVKGRFTISRDNAKNTVYLQMNSLKPEDTAVYYCAAYANYVPSSRLYLRYWGQGTQVTVSS
notes: as for B1
EC50 [1]: 0.684 nM

B22: CD3E_Nb2.74 (Fc fusion)
chain: QVQLQESGGGLVQAGGSLRLSCAASGTIFYASVMGWYRQAPGKEREFVAGITPGGSTNYADSVKGRFTISRDNAKNTVYLQMNSLKPEDTAVYYCAVYYRYSEGRIGGHAYWGQGTQVTVSS
notes: as for B1
EC50 [3]: 1.2 nM

B24: TNFSF18_Nb93 (Fc fusion)
chain: QVQLQESGGGLVQAGGSLRLSCAASGNISDPPFMGWYRQAPGKERELVAGISWGASTYYADSVKGRFTISRDNAKNTVYLQMNSLKPEDTAVYYCAAVTTDFGAYPFAYWGQGTQVTVSS
notes: as for B4
EC50 [6]: 1.59 nM

B25: TNFSF18_Nb101 (Fc fusion)
chain: QVQLQESGGGLVQAGGSLRLSCAASGYIFDDYGMGWYRQAPGKERELVATINAGANTNYADSVKGRFTISRDNAKNTVYLQMNSLKPEDTAVYYCAVYYGPYYRYLDPYLYWGQGTQVTVSS
notes: as for B4
EC50 [6]: 22.6 nM

B26: PROCR_Nb85 (Fc fusion)
chain: QVQLQESGGGLVQAGGSLRLSCAASGNISVLVYMGWYRQAPGKERELVAAITTGTSTYYADSVKGRFTISRDNAKNTVYLQMNSLKPEDTAVYYCAADYYGPWYHQYWGQGTQVTVSS
notes: as for B1
EC50 [2]: 0.352 nM

The next lines start with the values.

EC50 [3]: 0.67 nM
B3: CD3E_Nb2.77 (Fc fusion)
chain: QVQLQESGGGLVQAGGSLRLSCAASGSISPVAVMGWYRQAPGKEREFVAAINYGANTYYADSVKGRFTISRDNAKNTVYLQMNSLKPEDTAVYYCAAATYAPYQRSGKLVYWGQGTQVTVSS
notes: as for B1

REAP Off-Targets (number) [5]: 3 off-targets
EC50 [4]: 2.84 nM
B6: TNFRSF17_Nb2.19 (Fc fusion)
chain: QVQLQESGGGLVQAGGSLRLSCAASGTISHPTYMGWYRQAPGKEREFVAGISDGTNTYYADSVKGRFTISRDNAKNTVYLQMNSLKPEDTAVYYCAAITSWDYGYGYWGQGTQVTVSS
notes: as for B4

EC50 [1]: 2.21 nM
B7: CD302_Nb30 (Fc fusion)
chain: QVQLQESGGGLVQAGGSLRLSCAASGSISLATGMGWYRQAPGKEREFVAGISVGTSTYYADSVKGRFTISRDNAKNTVYLQMNSLKPEDTAVYYCAAIAWHPSGARSYLRYWGQGTQVTVSS
notes: as for B1

REAP Off-Targets (number) [5]: 6 off-targets
EC50 [6]: 4.07 nM
B8: TNFSF18_Nb96 (Fc fusion)
chain: QVQLQESGGGLVQAGGSLRLSCAASGNISWVYWMGWYRQAPGKERELVAGIATGGSTNYADSVKGRFTISRDNAKNTVYLQMNSLKPEDTAVYYCAVVASNGSRFWYWGQGTQVTVSS
notes: as for B4

REAP Off-Targets (number) [5]: 2 off-targets
EC50 [4]: 7.57 nM
B11: TNFRSF17_Nb2.23 (Fc fusion)
chain: QVQLQESGGGLVQAGGSLRLSCAASGYISRYDYMGWYRQAPGKERELVAAINSGASTYYADSVKGRFTISRDNAKNTVYLQMNSLKPEDTAVYYCAVRSWGLDDYAYWGQGTQVTVSS
notes: as for B4

EC50 [1]: 8.5 nM
B16: CD302_Nb26 (Fc fusion)
chain: QVQLQESGGGLVQAGGSLRLSCAASGNISFIGAMGWYRQAPGKEREFVAGINVGTNTYYADSVKGRFTISRDNAKNTVYLQMNSLKPEDTAVYYCAAYVFVSRIDLRYLVYWGQGTQVTVSS
notes: as for B1

EC50 [1]: 1.26 nM
B17: CD302_Nb31 (Fc fusion)
chain: QVQLQESGGGLVQAGGSLRLSCAASGTIFKSAGMGWYRQAPGKEREFVAGIAPGAITYYADSVKGRFTISRDNAKNTVYLQMNSLKPEDTAVYYCAALVADGRPYRYWGQGTQVTVSS
notes: as for B1

EC50 [1]: 0.654 nM
B18: CD302_Nb35 (Fc fusion)
chain: QVQLQESGGGLVQAGGSLRLSCAASGTISRVFVMGWYRQAPGKERELVAGIGGGTSTYYADSVKGRFTISRDNAKNTVYLQMNSLKPEDTAVYYCAAILSDRVLFRYWGQGTQVTVSS
notes: as for B1

EC50 [3]: 17.9 nM
B19: CD3E_Nb2.80 (Fc fusion)
chain: QVQLQESGGGLVQAGGSLRLSCAASGNISRRYVMGWYRQAPGKEREFVAGISGGSSTYYADSVKGRFTISRDNAKNTVYLQMNSLKPEDTAVYYCAVLISGNTPNAISHYYWGQGTQVTVSS
notes: as for B1

REAP Off-Targets (number) [5]: 5 off-targets
EC50 [4]: 4.75 nM
B21: TNFRSF17_Nb2.21 (Fc fusion)
chain: QVQLQESGGGLVQAGGSLRLSCAASGTIFQYDYMGWYRQAPGKEREFVAAIAYGGNTNYADSVKGRFTISRDNAKNTVYLQMNSLKPEDTAVYYCAAWSWRRSRAYWGQGTQVTVSS
notes: as for B4

EC50 [3]: 0.735 nM
B23: CD3E_Nb2.73 (Fc fusion)
chain: QVQLQESGGGLVQAGGSLRLSCAASGNISDITVMGWYRQAPGKEREFVAGINYGGSTNYADSVKGRFTISRDNAKNTVYLQMNSLKPEDTAVYYCAARYRYRYSAREFHDYWGQGTQVTVSS
notes: as for B1
